Measurements reported in patent US11248246B2, “Beta-glucosidase for producing glucose and laminarioligosaccharide from sea weed” (Korea University Research and Business Foundation, priority 2018, dated 2022).

Assays:
[1] = Substrate specificity of Bgl1B on disaccharides (TLC); format: biochemical; conditions: 0.2% (w/v) substrate, 20 mM sodium phosphate buffer (pH 6), 0.6 U of Bgl1B, 1 hour
Description: To confirm the substrate specificity of the Bgl1B protein, each of 0.2% (w/v) of a plurality of disaccharides in a 20 mM sodium phosphate buffer (pH 6) was allowed to react with 0.6 U of Bgl1B for 1 hour.

[2] = Hydrolysis of laminarin to glucose (HPLC); format: biochemical; conditions: 3 U of Bgl1B, 0.2% (w/v) of laminarin, 40° C., 24 hours
Description: (§1) Characteristics of the enzymatic reaction of the Bgl1B protein using, as a substrate, laminarin, which is a polysaccharide, were analyzed using high performance liquid chromatography (HPLC) and thin layer chromatography (TLC). HPLC analysis was performed using Agilent 1100 HPLC equipped with a gel permeation and ligand exchange column (KS-802; Shodex) and a refractive index detector, and analysis conditions were a flow rate of 0.5 mL/min, a column temperature of 80° C., and sterile water as a mobile phase. For TLC analysis, 1 μl of a reaction product was loaded onto silica gel 60 plates (Merck), and then developed using a mixed solvent of n-butanol:acetic acid:water (volume ratio of 3:2:2), and treated with 10% (v/v) of sulfuric acid for visualization.

[3] = Thermal stability of Bgl1B; format: physicochemical
Excerpt: FIG. 4 illustrates the stability with respect to temperature of the enzyme.

[4] = Transglycosylase activity against laminaribiose (HPLC, TLC, FIG. 8); format: biochemical; conditions: 0.002 U of Bgl1B, 0.3% (w/v) of laminarin (so in the source)
Description: as §1

[5] = Optimum pH of Bgl1B protein (relative activity at pH 4.0-9.0); format: biochemical
Excerpt: FIG. 2 illustrates the relative activity of Bgl1B at a pH ranging from 4.0 to 9.0. […] The activity was reduced to 30% or less at a pH of 4 and at a pH of 8 or higher.

[6] = Enzymatic reaction rate (Lineweaver-Burk), laminaribiose; format: biochemical
Description: To confirm the enzymatic reaction rate of the Bgl1B protein for various substrates, the Bgl1B protein was allowed to react with each substrate at various concentrations of 0.1-0.4% (w/v) at pH 6 and 40° C. Vmax, Km, and kcat, which are parameters related to an enzymatic reaction rate, were determined from the Lineweaver-Burk plot.

[7] = Transglycosylase activity against laminarin (HPLC, TLC); format: biochemical; conditions: 0.03 U of Bgl1B, 0.2% (w/v) of laminarin, after 24 hours
Description: as §1

[8] = Optimum temperature of Bgl1B (relative activity at 2° C. to 60° C.); format: biochemical
Description: FIG. 3 illustrates the relative activity of Bgl1B at a temperature ranging from 2° C. to 60° C. […] An enzymatic activity of approximately 83% was maintained at 20° C. […] In addition, the enzyme can be inactivated with only simple heat treatment.

B1: Bgl1B: β-glucosidase having the amino acid sequences of SEQ ID NO: 1, from Saccharophagus degradans 2-40^T, with exo-type glucanase and transglycosylase activities (protein)
chain: MNRLTLPPSSRLRSKEFTFGVATSSYQIEGGIDSRLPCNWDTFCEQPNTIIDNTNGAIACDHINRWQDDIELIANLGVDAYRFSIAWGRVINLDGSLNNEGVTFYKNILTKLREKNLKAYITLYHWDLPQHLEDAGGWLNRDTAYKFRDYVNLITQALDDDVFCYTTLNEPFCSAYLGYEIGVHAPGIKDLASGRKAAHHLLLAHGLAMQVLRKNCPNSLSGIVLNMSPCYAGSNAQADIDAAKRADDLLFQWYAQPLLTGCYPDAINSLPDNAKPPICEGDMALISQPLDYLGLNYYTRAVFFADGNGGFTEQVPEGVELTDMGWEVYPQGLTDLLIDLNQRYTLPPLLITENGAAMVDELVNGEVNDIARINYFQTHLQAVHNAIEQGVDVRGYFAWSLMDNFEWALGYSKRFGITYVDYQTQKRTLKASGHAFAEFVSSRS
modifications: Saccharophagus degradans 2-40T
Question: Which hydrolysis of agarotriose [1] does the source give for B1 here?
Answer: The hydrolysis of agarotriose was “unable to hydrolyze agarotriose”.

Question: What about the “hydrolysis of disaccharides with an α-linkage” value [1] of the same molecule?
Answer: Its value is “unable to hydrolyze any disaccharide with an α-linkage”.

Question: What about the “hydrolysis of disaccharides with β-linkages” value [1] of the same molecule?
Answer: The value was “able to hydrolyze all disaccharides with β-linkages”.

Question: What about the “production yield of glucose from laminarin” value [2] of the same molecule?
Answer: The value was 75%.

Question: What about the “products of laminarin degradation (HPLC)” value [2] of the same molecule?
Answer: The value was “only glucose is produced without the production of oligosaccharides”.

Question: What about the “enzymatic activity maintained after heat” value ([3]; after reaction at 40° C. for 1 hour) of the same molecule?
Answer: The value was 80%.

Question: What about the “enzymatic activity after heat” value ([3]; after reaction at 50° C. or higher for 1 hour) of the same molecule?
Answer: Its value is “almost no activity”.

Question: What about the “product of transglycosylase activity (FIGS. 8A and 8B)” value [4] of the same molecule?
Answer: Its value is “production of DP3 was confirmed”.

Question: And the “pH of highest activity” value ([5]; 0.1% (w/v) cellobiose, 40° C., 15 minutes, pH 4.0-9.0)?
Answer: The value was 6.

Question: What about the “enzymatic activity at about pH 5 to about pH 7.5” value ([5]; about pH 5 to about pH 7.5) of the same molecule?
Answer: The value was at least 80%.

Question: What about the “relative activity at a pH of 4” value ([5]; pH 4, 0.1% (w/v) cellobiose, 40° C., 15 minutes) of the same molecule?
Answer: The value was at most 30%.

Question: And the “relative activity at a pH of 8 or higher” value ([5]; pH 8 or higher, 0.1% (w/v) cellobiose, 40° C., 15 minutes)?
Answer: Its value is at most 30%.

Question: And the “substrate specificity in a collective view of the parameters” value ([6]; Table 2 substrates compared)?
Answer: Its value is “highest substrate specificity for laminaribiose”.

Question: And the “lower Km compared to Novozyme 188” value ([6]; laminaribiose, compared to the commercialized enzyme Novozyme 188)?
Answer: Its value is 2.5 fold.

Question: And the “products at very low enzyme concentration (transglycosylase activity)” value [7]?
Answer: The value was “oligosaccharides with low degrees of polymerization such as DP2, DP3, and DP4 were produced”.

Question: And the “enzymatic activity at 50° C. or higher” value ([8]; 50° C. or higher)?
Answer: Its value is “sharply reduced”.

Question: What about the “enzymatic activity at 2-10° C.” value ([8]; pH 6, 2-10° C.) of the same molecule?
Answer: Its value is at least 58%.

Question: What about the “enzymatic activity at pH 6 and 10° C. to 40° C.” value ([8]; pH 6, 10° C. to 40° C.) of the same molecule?
Answer: Its value is at least 80%.

Question: And the “enzymatic activity maintained at 20° C.” value ([8]; pH 6, 20° C.)?
Answer: The value was “approximately 83%”.

Question: And the “temperature of highest enzymatic activity” value ([8]; pH 6, range 2° C. to 60° C.)?
Answer: The value was 40 °C.
